From paper PMC12445079 come the findings set out here.

The target in the assay is Bacillus subtilis GapA (glyceraldehyde-3-phosphate dehydrogenase), His-tagged (Bacillus subtilis) (UniProt P09124).
UniProt P09124, sequence (P09124 whole entry): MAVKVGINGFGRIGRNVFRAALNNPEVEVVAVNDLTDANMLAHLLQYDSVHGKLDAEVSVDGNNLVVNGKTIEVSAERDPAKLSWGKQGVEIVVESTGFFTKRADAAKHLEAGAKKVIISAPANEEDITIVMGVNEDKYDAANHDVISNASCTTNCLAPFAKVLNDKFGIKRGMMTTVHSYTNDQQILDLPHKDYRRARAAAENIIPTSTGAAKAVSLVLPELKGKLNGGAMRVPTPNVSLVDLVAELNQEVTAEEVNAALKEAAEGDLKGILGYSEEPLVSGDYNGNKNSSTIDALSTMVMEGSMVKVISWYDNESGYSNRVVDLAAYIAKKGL

B1: Bacillus subtilis HPr-G54D, His-tagged (natural protein)
chain: MAQKTFKVTADSGIHARPATVLVQTASKYDADVNLEYNGKTVNLKSIMGVMSLDIAKGAEITISASGADENDALNALEETMKSEGLGE
Turning to B1, the catalytic efficiency kcat/KM of GapA with E4P in the presence of HPr-G54D (GAPDH alone: 1.05) amounted to 0.73 mM⁻¹ s⁻¹ and the catalytic efficiency kcat/KM of GapA with G3P in the presence of HPr-G54D (GAPDH alone: 219) came to 68.5 mM⁻¹ s⁻¹.

B2: Bacillus subtilis histidine-containing phosphocarrier protein (HPr), His-tagged (natural protein)
chain: MAQKTFKVTADSGIHARPATVLVQTASKYDADVNLEYNGKTVNLKSIMGVMSLGIAKGAEITISASGADENDALNALEETMKSEGLGE
For the molecule B2, the catalytic efficiency kcat/KM of GapA with E4P in the presence of HPr (GAPDH alone: 1.05) is 1.88 mM⁻¹ s⁻¹ and the catalytic efficiency kcat/KM of GapA with G3P in the presence of HPr (GAPDH alone: 219) came to 57.4 mM⁻¹ s⁻¹.

B3: Bacillus subtilis HPr-S46E, G54D, His-tagged (natural protein)
chain: MAQKTFKVTADSGIHARPATVLVQTASKYDADVNLEYNGKTVNLKEIMGVMSLDIAKGAEITISASGADENDALNALEETMKSEGLGE
On to B3, for which the catalytic efficiency kcat/KM of GapA with E4P in the presence of HPr-G54D, S46E (GAPDH alone: 1.05) was determined as 3.78 mM⁻¹ s⁻¹ and the catalytic efficiency kcat/KM of GapA with G3P in the presence of HPr-G54D, S46E (GAPDH alone: 219) is 164 mM⁻¹ s⁻¹.

B4: Bacillus subtilis HPr-S46E, His-tagged (natural protein)
chain: MAQKTFKVTADSGIHARPATVLVQTASKYDADVNLEYNGKTVNLKEIMGVMSLGIAKGAEITISASGADENDALNALEETMKSEGLGE
On to B4, for which the catalytic efficiency kcat/KM of GapA with E4P in the presence of HPr-S46E (GAPDH alone: 1.05) came to 2.6 mM⁻¹ s⁻¹ and the catalytic efficiency kcat/KM of GapA with G3P in the presence of HPr-S46E (GAPDH alone: 219) worked out at 38.8 mM⁻¹ s⁻¹.
